According to patent US20230235054A1 (BIOATLA, published 2023):

Assays:
human Nectin-4 on cells = molecular target: T1, human Nectin-4 on cells (human, UniProt Q96NY8 32-510); test: FACS, T47D cells
T1 construct: whole, on cells; also called HEK293 cells expressing human Nectin-4; T47D cells that express human Nectin-4
T1 sequence (looked up): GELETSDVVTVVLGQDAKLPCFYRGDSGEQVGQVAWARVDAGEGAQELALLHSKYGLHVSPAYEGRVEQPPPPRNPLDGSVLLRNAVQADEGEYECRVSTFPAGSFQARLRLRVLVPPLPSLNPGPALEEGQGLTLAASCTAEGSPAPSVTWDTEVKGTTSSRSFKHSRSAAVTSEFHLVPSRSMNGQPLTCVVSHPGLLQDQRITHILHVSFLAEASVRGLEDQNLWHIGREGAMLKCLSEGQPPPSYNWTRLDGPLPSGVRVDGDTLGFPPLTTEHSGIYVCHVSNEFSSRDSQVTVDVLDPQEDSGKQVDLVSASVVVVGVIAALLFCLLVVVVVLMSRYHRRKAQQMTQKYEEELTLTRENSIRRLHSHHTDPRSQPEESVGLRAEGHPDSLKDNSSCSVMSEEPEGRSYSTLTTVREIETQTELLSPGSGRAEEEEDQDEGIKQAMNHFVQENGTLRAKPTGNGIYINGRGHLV

huNectin4-His = molecular target: T2, huNectin4-His (human, UniProt Q96NY8 32-349); test: SPR, huNectin4-His immobilized, pH 7.4
T2 construct: Immobilized on the SPR chip; also called humanNectin4; human Nectin4; not shown: His tag
T2 sequence (looked up): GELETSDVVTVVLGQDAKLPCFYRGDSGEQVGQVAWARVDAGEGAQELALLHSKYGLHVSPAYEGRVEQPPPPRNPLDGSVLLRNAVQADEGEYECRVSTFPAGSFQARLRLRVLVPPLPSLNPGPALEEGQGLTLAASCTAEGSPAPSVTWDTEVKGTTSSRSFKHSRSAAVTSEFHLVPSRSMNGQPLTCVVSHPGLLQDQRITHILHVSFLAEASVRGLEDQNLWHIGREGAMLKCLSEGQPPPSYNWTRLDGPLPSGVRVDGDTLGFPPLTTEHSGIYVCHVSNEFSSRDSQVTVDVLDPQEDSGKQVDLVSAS
Description: Binding kinetics of anti-Nectin4 antibodies were measured by surface plasmon resonance using a SPR2/4 instrument (Sierra Sensors, Hamburg, Germany) and flat amine sensor chips. The SPR sensor contained four flow cells (FC1-FC4), each of which was addressed individually or in groups. huNectin4-His was immobilized in FC2, and cynoNectin4-mFc in FC4. No protein was immobilized in FC1 and FC3 which were used as control surfaces for FC2 and FC4, respectively.
All injections were done at a flow rate of 25 μL/min at 25° C. The sensor surface was activated with 1-ethyl-3-(3-dimethylaminopropyl)-carbodiimide (EDC) and N-hydroxysuccinimide (NHS) (200 mM/50 mM) for 480 seconds. HuNectin4-His (2 μg/mL in 10 mM NaAc, pH4.5) was injected for 480s and the surface was inactivated by injecting 1M ethanolamine-HCl for 480s. CynoNectin4 was immobilized using the same conditions as described for huNectin4-His, except that the cynoNectin4 was diluted into 10 mM NaAc buffer having pH 5.0. The control surface was activated and deactivated using the same conditions, but without injecting protein. PBST buffer (PBS pH 7.4 with 0.05% TWEEN20™) was used as running buffer for the surface preparation. The running solution was switched to PBST with 30 mM sodium bicarbonate with the pH adjusted as indicated in the figures before the analyte injections. The instrument was equilibrated with the running solution for one hour before the first analyte injection.
The off-rate was measured for 360s. The chip surface was regenerated after each cycle of interaction analysis by injecting 6 μL of 10 mM glycine (pH 2.0). Flow cells 1 and 3 without immobilized protein were used as control surfaces for reference subtraction.

[1] = molecular target: T3, recombinant human Nectin4 antigen (human, UniProt Q96NY8 32-349); test: ELISA, coated antigen, PSB pH 6.0
T3 construct: construct not described
T3 sequence (looked up): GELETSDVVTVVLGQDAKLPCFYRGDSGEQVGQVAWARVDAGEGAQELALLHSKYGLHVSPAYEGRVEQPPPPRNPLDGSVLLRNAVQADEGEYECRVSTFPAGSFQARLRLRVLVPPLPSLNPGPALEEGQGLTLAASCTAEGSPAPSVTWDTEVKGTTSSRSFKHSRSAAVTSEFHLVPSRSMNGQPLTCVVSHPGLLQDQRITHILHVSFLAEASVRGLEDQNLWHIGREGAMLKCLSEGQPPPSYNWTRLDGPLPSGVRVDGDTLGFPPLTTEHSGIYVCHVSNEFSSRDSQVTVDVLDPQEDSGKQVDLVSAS
Description: 1) Coat ELISA plates with 100 μL of 1 μg/mL recombinant human Nectin4 antigen or cynoNectin4 antigen in carbonate-bicarbonate coating buffer. […] 2) Cover plates with sealing film and incubate overnight at 4° C. [0444] 3) Decant plates and tap out residual liquid on a stack of paper towels. [0445] 4) Wash wells twice by dispensing 200 μL of pH 6.0 or pH 7.4 ELISA incubation buffer to the wells and completely aspirate the contents. [0446] 5) Add 200 μL of pH 6.0 or pH 7.4 ELISA incubation buffer to the wells. Cover with sealing film and place the plate onto a plate shaker set to 50 rpm for 60 minutes at room temperature. [0447] 6) Decant plates and tap out residual liquid on a stack of paper towels. […] 7) Serially dilute test articles in 3-fold dilutions starting at 3000 ng/mL in pH 6.0 or pH 7.4 ELISA incubation buffer. […] 8) Add 100 μL/well of diluted test articles to the plates [0450] 9) Cover with sealing film and place the plates onto a plate shaker set to 50 rpm for 60 minutes at room temperature. [0451] 10) Decant plates and tap out residual liquid on a stack of paper towels. [0452] 11) Wash wells three times by dispensing 200 μL of pH 6.0 or pH 7.4 ELISA wash buffer to the wells and completely aspirate the contents. […] 12) Dilute the HRP secondary antibody at 1:2500 in pH 6.0 or pH 7.4 ELISA incubation buffer. [0454] […] 14) Cover with sealing film and place the plates onto a plate shaker set to 50 rpm for 60 minutes at room temperature. […] 15) Decant plates and tap out residual liquid on a stack of paper towels. […] 16) Wash wells three times by dispensing 200 μL of pH 6.0 or pH 7.4 ELISA wash buffer to the wells and completely aspirate the contents. [0458] 17) Dispense 50 μL per well of the TMB substrate solution into all wells of the plates.

Row | Binder | Ratio (pH 7.4/6.0) of EC50 (human Nectin-4 on cells) | Kd (huNectin4-His) | EC50 [1] | koff (huNectin4-His) | kon (huNectin4-His)
1 | BAP-143-wildtype (antibody, V domains shown, 150 kDa used in SPR; also called BAP143-00-00; benchmark (BM)) VH: EVQLVESGGGLVQPGGSLRLSCAASGFTFSSYNMNWVRQAPGKGLEWVSYISSSSSTIYYADSVKGRFTISRDNAKNSLSLQMNSLRDEDTAVYYCARAYYYGMDVWGQGTTVTVSS VL: DIQMTQSPSSVSASVGDRVTITCRASQGISGWLAWYQQKPGKAPKFLIYAASTLQSGVPSRFSGSGSGTDFTLTISSLQPEDFATYYCQQANSFPPTFGGGTKVEIK | 1.2 | 0.127 nM | 0.0316 µg/mL | – | –
2 | BAP-143-00-01 (antibody, V domains shown, Used as a conjugate with a linker payload (CAB ADC)) VH: EVQLVESGGGLVQPGGSLRLSCAASGFTFSSYNMNWVRQAPGKGLEWVSYISSSSSTIYYADSVKGRFTISRDNAKNSLSLQMNSLRDEDTAVYYCARAYYYGMDVWGQGTTVTVSS VL: DIQMTQSPSSVSASVGDRVTITCRASQGISGWEAWYQQKPGKAPKFLIYAASTLQSGVPSRFSGSGSGTDFTLTISSLQPEDFATYYCQQANSFPPTFGGGTKVEIK | 6.2 | 1.81 nM | 0.0313 µg/mL | 0.000517 s⁻¹ | 285000 M⁻¹ s⁻¹
3 | BAP-143-00-02 (antibody, V domains shown, Used as a conjugate with a linker payload (CAB ADC)) VH: EVQLVESGGGLVQPGGSLRLSCAASGFTFSSYNMNWVRQAPGKGLEWVSYISSSSSTIYYADSVKGRFTISRDNAKNSLSLQMNSLRDEDTAVYYCARAYYYGMDVWGQGTTVTVSS VL: DIQMTQSPSSVSASVGDRVTITCRASQGISGWLAWYQQKPGKAPKFLIYAASTLQSGVPSRFSGSGSGTDFTLTISSLQPEDFATYYCQQANSEPPTFGGGTKVEIK | – | – | 0.0876 µg/mL | – | –
4 | BAP-143-00-03 (antibody, V domains shown, Used as a conjugate with a linker payload (CAB ADC)) VH: EVQLVESGGGLVQPGGSLRLSCAASGFTFSSYNMNWVRQAPGKGLEWVSYISSSSSTIYYADSVKGRFTISRDNAKNSLSLQMNSLRDEDTAVYYCARAYYYGMDVWGQGTTVTVSS VL: DIQMTQSPSSVSASVGDRVTITCRASQGISGWLAWYQQKPGKAPKFLIYAASTLQSGVPSRFSGSGSGTDFTLTISSLQPEDFATYYCQQANSFPDTFGGGTKVEIK | – | – | 0.0344 µg/mL | – | –
5 | BAP-143-00-04 (antibody, V domains shown, Used as a conjugate with a linker payload (CAB ADC)) VH: EVQLVESGGGLVQPGGSLRLSCAASGFTFSSYNDNWVRQAPGKGLEWVSYISSSSSTIYYADSVKGRFTISRDNAKNSLSLQMNSLRDEDTAVYYCARAYYYGMDVWGQGTTVTVSS VL: DIQMTQSPSSVSASVGDRVTITCRASQGISGWLAWYQQKPGKAPKFLIYAASTLQSGVPSRFSGSGSGTDFTLTISSLQPEDFATYYCQQANSFPPTFGGGTKVEIK | – | – | 0.0258 µg/mL | – | –
6 | BAP-143-00-05 (antibody, V domains shown, Used as a conjugate with a linker payload (CAB ADC)) VH: EVQLVESGGGLVQPGGSLRLSCAASGFTFSSYNMNWVRQAPGKGLEWVSYISSSSSTIYYADSVKGRFTISRDNAKNSLSLQMNSLRDEDTAVYYCAEAYYYGMDVWGQGTTVTVSS VL: DIQMTQSPSSVSASVGDRVTITCRASQGISGWLAWYQQKPGKAPKFLIYAASTLQSGVPSRFSGSGSGTDFTLTISSLQPEDFATYYCQQANSFPPTFGGGTKVEIK | – | – | 0.0441 µg/mL | – | –
7 | BAP-143-00-06 (antibody, V domains shown, Used as a conjugate with a linker payload (CAB ADC)) VH: EVQLVESGGGLVQPGGSLRLSCAASGFTFSSYNMNWVRQAPGKGLEWVSYISSSSSTIYYADSVKGRFTISRDNAKNSLSLQMNSLRDEDTAVYYCARAYYYGDDVWGQGTTVTVSS VL: DIQMTQSPSSVSASVGDRVTITCRASQGISGWLAWYQQKPGKAPKFLIYAASTLQSGVPSRFSGSGSGTDFTLTISSLQPEDFATYYCQQANSFPPTFGGGTKVEIK | – | – | 0.0247 µg/mL | – | –
8 | BAP-143-07-03-12 (antibody, V domains shown, Used as a conjugate with a linker payload (CAB ADC)) VH: EVQLVESGGGLVQPGGSLRLSCAASGFTFSSYNMNWVRQAPGKGLEWVSYISSSSSTIYYADSVKGRFTISRDNAKNSLSLQMNSLRDEDTAVYYCARAYYYGMDKWGQGTTVTVSS VL: DIQMTQSPSSVSASVGDRVTITCRASQGISGWEAWYQQKPGKAPKFLIYAASTLQSGVPSRFSGSGSGTDFTLTISSLQPEDFATYYCQQANSFPPTFGGGTKVEIK | 4.5 | 0.925 nM | – | 0.000401 s⁻¹ | 434000 M⁻¹ s⁻¹
9 | BAP-143-06-33-03 (antibody, V domains shown, Used as a conjugate with a linker payload (CAB ADC)) VH: QVQLVQSGAEVKKPGASVKVSCKASGFTFSSYNMNWVRQARGQRLEWIGYISSSSSTIYYADSVKGRFTISRDNSKNTLYLQMNSLRAEDTAVYYCARAYYYGMDKWGQGTLVTVSS VL: DIQMTQSPSSVSASVGDRVTITCRASQGISGWLAWYQQKPGKAPKFLIYAASTLQSGVPSRFSGSGSGTDFTLTISSLQPEDFATYYCQQANSEPPTFGGGTKVEIK | 14.8 | – | – | – | –
10 | BAP-143-06-24-16 (antibody, V domains shown, Used as a conjugate with a linker payload (CAB ADC)) VH: EVQLVQSGAEVKKPGATVKISCKVSGFTFSSYNMNWIRQSPSRGLEWLGYISSSSSTIYYADSVKGRFTISRDNSKNTLYLQMNSLRAEDTAVYYCARAYYYGDDVWGQGTLVTVSS VL: DIQMTQSPSSVSASVGDRVTITCHASQGISGWLAWYQQKPGKAPKFLIYAASTLQSGVPSRFSGSGSGTDFTLTISSLQPEDFATYYCQQANSFPPTFGGGTKVEIK | 2.9 | 0.0067 nM | – | 5.21e-06 s⁻¹ | 778000 M⁻¹ s⁻¹
11 | BAP-143-06-33-16 (antibody, V domains shown, Used as a conjugate with a linker payload (CAB ADC)) VH: EVQLVQSGAEVKKPGATVKISCKVSGFTFSSYNMNWIRQSPSRGLEWLGYISSSSSTIYYADSVKGRFTISRDNSKNTLYLQMNSLRAEDTAVYYCARAYYYGDDVWGQGTLVTVSS VL: DIQMTQSPSSVSASVGDRVTITCRASQGISGWEAWYQQKPGKAPKFLIYAASTLQSGVPSRFSGSGSGTDFTLTISSLQPEDFATYYCQQANSFPPTFGGGTKVEIK | 3.4 | 0.17 nM | – | 2.01e-05 s⁻¹ | 119000 M⁻¹ s⁻¹
